Test results published in article PMC9287412, “Cryo-EM structure of the human Kv3.1 channel reveals gating control by the cytoplasmic T1 domain” (Nature Communications, 2022).

Target: the molecule itself
Assay: cryo-EM structure; purified Kv3.1a, 20 uM, in 20 mM HEPES pH 7.5, 100 mM NaCl, 50 mM KCl, 0.04% digitonin; apo, with 1 mM EDTA or with 400 uM ZnCl2; subunits within the tetrameric channel

B1: human Kv3.1a channel (full-length human Kv3.1, isoform A) (natural protein, UniProt P48547 1-511, looked up)
chain: MGQGDESERIVINVGGTRHQTYRSTLRTLPGTRLAWLAEPDAHSHFDYDPRADEFFFDRHPGVFAHILNYYRTGKLHCPADVCGPLYEEELAFWGIDETDVEPCCWMTYRQHRDAEEALDSFGGAPLDNSADDADADGPGDSGDGEDELEMTKRLALSDSPDGRPGGFWRRWQPRIWALFEDPYSSRYARYVAFASLFFILVSITTFCLETHERFNPIVNKTEIENVRNGTQVRYYREAETEAFLTYIEGVCVVWFTFEFLMRVIFCPNKVEFIKNSLNIIDFVAILPFYLEVGLSGLSSKAAKDVLGFLRVVRFVRILRIFKLTRHFVGLRVLGHTLRASTNEFLLLIIFLALGVLIFATMIYYAERIGAQPNDPSASEHTHFKNIPIGFWWAVVTMTTLGYGDMYPQTWSGMLVGALCALAGVLTIAMPVPVIVNNFGMYYSLAMAKQKLPKKKKKHIPRPPQLGSPNYCKSVVNSPHHSTQSDTCPLAQEEILEINRAGRKPLRGMSI
notes: Voltage-gated potassium channel Kv3.1, human, shorter splice variant Kv3.1a (isoform A, α-isoform), full length, cloned from the mammalian gene collection; Homotetramer in the cryo-EM structures; the longer Kv3.1b was not used; also called shorter α-isoform of Kv3.1; KCNC1 gene product; not shown: Strep-II, C-terminal, cleaved; His10, C-terminal, cleaved; GFP, C-terminal, cleaved
stoichiometry N: 4
